Experimental data: paper PMC11342145

What was measured:
Grb7 = Grb7 (UniProt Q03160); experiment: fragment AP-MS, label-free quantification; conditions: reference: YYYS fragment
Grb2 [1] = target: Grb2 (UniProt Q60631); experiment: fragment affinity purification, western blot; conditions: reference: YYYS fragment; sites Y239,Y240
Pik3r1 [2] = target: Pik3r1 (UniProt P26450); experiment: fragment affinity purification, western blot
Grb2 [3] = target: Grb2 (UniProt Q60631); experiment: fragment AP-MS, label-free quantification; conditions: reference: YYYS fragment; sites Y239,Y240
Arhgef5 = Arhgef5 (UniProt E9Q7D5); experiment: fragment AP-MS, label-free quantification; conditions: reference: YYYS fragment; sites Y239,Y240
Chain of UniProt E9Q7D5 (E9Q7D5 whole entry, looked up, the tested form may be a part): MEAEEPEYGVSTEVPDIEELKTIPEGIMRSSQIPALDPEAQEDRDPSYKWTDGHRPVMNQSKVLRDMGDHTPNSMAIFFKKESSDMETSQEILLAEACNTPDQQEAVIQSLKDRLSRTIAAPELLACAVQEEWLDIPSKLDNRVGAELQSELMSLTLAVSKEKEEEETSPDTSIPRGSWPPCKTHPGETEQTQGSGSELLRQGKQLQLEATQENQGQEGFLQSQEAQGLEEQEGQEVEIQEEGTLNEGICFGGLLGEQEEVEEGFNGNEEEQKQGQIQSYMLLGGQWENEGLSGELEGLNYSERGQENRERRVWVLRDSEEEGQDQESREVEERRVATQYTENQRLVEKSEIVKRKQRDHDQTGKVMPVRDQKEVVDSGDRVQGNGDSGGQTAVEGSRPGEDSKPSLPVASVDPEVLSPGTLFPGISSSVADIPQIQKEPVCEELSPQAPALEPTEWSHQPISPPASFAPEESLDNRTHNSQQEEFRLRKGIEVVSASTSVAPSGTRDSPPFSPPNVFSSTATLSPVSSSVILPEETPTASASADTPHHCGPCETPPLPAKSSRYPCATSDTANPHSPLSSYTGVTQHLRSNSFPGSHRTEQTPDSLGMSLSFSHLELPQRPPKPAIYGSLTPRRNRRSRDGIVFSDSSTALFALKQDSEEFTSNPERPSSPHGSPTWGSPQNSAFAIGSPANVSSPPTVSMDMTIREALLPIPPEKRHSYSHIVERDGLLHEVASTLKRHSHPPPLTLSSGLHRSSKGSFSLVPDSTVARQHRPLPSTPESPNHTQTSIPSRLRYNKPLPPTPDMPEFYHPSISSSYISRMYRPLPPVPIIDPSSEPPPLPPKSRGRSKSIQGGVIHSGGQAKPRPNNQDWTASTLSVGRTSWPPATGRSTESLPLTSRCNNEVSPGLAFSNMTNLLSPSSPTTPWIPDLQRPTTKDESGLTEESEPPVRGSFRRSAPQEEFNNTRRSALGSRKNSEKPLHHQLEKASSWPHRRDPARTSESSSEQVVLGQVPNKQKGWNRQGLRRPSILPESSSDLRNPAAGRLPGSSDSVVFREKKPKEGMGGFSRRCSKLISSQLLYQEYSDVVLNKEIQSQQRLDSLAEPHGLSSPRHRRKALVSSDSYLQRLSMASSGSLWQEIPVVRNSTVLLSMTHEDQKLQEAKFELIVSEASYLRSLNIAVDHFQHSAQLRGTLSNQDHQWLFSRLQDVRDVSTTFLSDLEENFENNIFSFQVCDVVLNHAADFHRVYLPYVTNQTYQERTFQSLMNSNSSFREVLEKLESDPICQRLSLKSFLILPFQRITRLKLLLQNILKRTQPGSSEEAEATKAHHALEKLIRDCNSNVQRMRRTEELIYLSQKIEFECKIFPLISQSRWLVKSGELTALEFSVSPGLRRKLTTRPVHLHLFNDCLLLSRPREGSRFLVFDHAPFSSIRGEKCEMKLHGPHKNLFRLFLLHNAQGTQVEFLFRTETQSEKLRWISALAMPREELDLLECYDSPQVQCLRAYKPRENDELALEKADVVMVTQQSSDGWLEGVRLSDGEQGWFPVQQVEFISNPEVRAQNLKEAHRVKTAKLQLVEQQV

Pik3r1 [4] = target: Pik3r1 (UniProt P26450); experiment: fragment AP-MS, label-free quantification
Plcg1 [5] = target: Plcg1 (UniProt Q62077); experiment: fragment affinity purification, western blot; conditions: reference: pYpYYS fragment; sites Y313,S335
Chain of UniProt Q62077 (Q62077 whole entry, looked up, the tested form may be a part): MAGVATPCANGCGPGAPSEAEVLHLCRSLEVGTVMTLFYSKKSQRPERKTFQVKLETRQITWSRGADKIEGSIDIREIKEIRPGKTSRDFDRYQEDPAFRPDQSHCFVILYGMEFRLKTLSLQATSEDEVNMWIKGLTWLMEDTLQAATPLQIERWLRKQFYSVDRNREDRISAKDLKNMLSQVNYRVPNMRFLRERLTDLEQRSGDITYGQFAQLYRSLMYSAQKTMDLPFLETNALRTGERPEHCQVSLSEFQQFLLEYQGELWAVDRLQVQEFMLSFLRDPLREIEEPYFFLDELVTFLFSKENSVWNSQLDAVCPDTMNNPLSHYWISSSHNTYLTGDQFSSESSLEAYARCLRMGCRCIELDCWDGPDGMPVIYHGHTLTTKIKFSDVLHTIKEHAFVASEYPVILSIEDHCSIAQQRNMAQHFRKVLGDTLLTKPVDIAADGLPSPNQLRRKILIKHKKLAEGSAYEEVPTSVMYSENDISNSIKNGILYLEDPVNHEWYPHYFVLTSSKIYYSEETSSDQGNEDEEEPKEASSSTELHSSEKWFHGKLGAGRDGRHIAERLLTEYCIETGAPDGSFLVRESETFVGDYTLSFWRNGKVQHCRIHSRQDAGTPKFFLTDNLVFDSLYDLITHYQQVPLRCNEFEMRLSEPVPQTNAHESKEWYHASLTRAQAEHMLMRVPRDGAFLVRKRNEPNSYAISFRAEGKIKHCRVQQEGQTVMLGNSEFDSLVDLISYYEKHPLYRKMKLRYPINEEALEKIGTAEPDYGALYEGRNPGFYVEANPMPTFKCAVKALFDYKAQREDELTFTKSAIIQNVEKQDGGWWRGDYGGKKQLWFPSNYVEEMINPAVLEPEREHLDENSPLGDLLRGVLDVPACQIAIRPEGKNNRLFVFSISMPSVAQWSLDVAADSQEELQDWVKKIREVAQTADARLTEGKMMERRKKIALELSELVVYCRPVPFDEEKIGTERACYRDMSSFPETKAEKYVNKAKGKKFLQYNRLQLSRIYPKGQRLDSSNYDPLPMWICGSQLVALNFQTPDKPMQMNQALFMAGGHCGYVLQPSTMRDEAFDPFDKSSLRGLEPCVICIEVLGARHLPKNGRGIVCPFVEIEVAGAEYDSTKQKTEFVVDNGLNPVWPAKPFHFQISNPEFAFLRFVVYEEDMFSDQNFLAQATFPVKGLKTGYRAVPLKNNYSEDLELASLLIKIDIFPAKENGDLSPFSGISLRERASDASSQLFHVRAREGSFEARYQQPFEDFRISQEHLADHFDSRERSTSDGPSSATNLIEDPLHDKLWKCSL

Ubash3b (Sts1) [6] = target: Ubash3b (Sts1) (UniProt Q8BGG7); experiment: fragment affinity purification, western blot; conditions: reference: pYpYYS fragment; sites Y313,S335
Chain of UniProt Q8BGG7 (Q8BGG7 whole entry, looked up, the tested form may be a part): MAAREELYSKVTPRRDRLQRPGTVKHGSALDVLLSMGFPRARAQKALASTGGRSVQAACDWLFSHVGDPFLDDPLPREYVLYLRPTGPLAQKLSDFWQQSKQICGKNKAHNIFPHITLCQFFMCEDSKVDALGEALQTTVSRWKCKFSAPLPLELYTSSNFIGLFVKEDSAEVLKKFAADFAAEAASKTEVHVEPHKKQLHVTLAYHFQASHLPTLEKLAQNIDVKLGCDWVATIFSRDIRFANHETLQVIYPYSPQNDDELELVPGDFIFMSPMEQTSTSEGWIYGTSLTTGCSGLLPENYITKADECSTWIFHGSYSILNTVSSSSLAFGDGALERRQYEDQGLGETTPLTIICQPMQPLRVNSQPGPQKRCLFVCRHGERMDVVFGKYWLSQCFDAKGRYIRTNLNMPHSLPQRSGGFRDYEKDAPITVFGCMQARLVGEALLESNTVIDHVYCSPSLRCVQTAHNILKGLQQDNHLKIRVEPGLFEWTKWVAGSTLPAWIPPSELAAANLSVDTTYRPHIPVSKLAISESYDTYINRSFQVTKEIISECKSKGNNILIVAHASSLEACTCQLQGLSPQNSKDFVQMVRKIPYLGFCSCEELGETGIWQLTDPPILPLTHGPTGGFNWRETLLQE

Plcg1 [7] = target: Plcg1 (UniProt Q62077); experiment: fragment AP-MS, label-free quantification
Ubash3b (Sts1) [8] = target: Ubash3b (Sts1) (UniProt Q8BGG7); experiment: fragment AP-MS, label-free quantification
[9] = reference: YYYS fragment, sites Y239,Y240
[10] = reference: pYpYYS fragment, sites Y313,S335
[11] = reference: YYYS fragment, sites Y239,Y240,Y313,S335

Measured: binding against the reference

Chain of UniProt P26450 (P26450 whole entry, looked up, the tested form may be a part): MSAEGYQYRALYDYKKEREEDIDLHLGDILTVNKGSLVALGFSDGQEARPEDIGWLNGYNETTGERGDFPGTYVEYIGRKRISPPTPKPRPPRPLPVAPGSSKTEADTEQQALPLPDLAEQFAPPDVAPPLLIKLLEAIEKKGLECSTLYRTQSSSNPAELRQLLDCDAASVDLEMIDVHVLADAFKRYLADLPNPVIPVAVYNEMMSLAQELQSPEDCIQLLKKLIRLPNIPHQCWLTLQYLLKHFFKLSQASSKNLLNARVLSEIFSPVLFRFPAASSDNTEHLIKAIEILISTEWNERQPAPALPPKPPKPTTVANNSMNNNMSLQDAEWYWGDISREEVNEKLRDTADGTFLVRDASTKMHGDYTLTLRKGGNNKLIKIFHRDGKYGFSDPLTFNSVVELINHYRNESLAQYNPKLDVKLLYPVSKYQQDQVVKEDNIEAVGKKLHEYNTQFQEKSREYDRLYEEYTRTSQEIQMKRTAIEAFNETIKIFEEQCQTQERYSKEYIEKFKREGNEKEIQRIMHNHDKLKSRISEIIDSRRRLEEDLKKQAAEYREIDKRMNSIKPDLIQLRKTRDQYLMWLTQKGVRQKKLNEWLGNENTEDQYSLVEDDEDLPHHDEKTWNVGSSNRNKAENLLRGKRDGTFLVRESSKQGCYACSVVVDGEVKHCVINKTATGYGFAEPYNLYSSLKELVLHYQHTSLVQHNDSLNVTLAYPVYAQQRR
Chain of UniProt Q03160 (Q03160 whole entry, looked up, the tested form may be a part): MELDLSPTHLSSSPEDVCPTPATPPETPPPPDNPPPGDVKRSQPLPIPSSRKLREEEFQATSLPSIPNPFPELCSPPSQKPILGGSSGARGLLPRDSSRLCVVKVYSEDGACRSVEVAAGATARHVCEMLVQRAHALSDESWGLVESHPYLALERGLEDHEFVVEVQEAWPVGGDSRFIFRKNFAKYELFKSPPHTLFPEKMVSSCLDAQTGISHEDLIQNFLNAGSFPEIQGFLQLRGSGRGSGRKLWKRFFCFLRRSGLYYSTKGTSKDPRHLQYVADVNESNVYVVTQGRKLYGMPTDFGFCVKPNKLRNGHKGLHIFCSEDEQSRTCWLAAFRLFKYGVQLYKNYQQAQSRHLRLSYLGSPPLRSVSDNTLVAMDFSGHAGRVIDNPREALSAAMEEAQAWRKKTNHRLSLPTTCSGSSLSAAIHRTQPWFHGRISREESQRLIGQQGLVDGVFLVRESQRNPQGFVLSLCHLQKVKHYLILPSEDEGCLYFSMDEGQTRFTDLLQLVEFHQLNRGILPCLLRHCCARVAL

Shc1 (p52Shc1) CH1 region, 107 residues (from UniProt P98083-2) pYYYS fragment
stronger: Grb7; sites Y239

Shc1 (p52Shc1) CH1 region, 107 residues (from UniProt P98083-2) pYpYYS fragment
stronger: Grb2 [1] | Pik3r1 [2]; [9] | Grb2 [3] | Arhgef5 | Pik3r1 [4]; [9] | Grb7; sites Y239,Y240

Shc1 (p52Shc1) CH1 region, 107 residues (from UniProt P98083-2) pYpYpYpS fragment
stronger: Pik3r1 [2]; [10] | Plcg1 [5] | Ubash3b (Sts1) [6] | Pik3r1 [4]; [10] | Plcg1 [7]; [11] | Plcg1 [7]; [10] | Ubash3b (Sts1) [8]; [11] | Ubash3b (Sts1) [8]; [10]
